Measurements: patent publication US7122624B2, “Parathyroid hormone receptor ligands” (The United States of America as represented by the …, priority 1999, dated 2006)

Key:
human PTH2 receptor = target: T1, human PTH2 receptor (Homo sapiens, UniProt P49190); test: cAMP accumulation in COS-7 cells transiently expressing the human PTH2 receptor; assay type: cell-based; details: COS-7
T1 construct: expressed in transfected cells; host or cells: COS-7 (transient)
Description: (§1) Cell culture supplies were obtained from Life Technologies (Frederick, Md.) except for fetal bovine serum which was from Sigma (St. Louis, Mo.).
(§2) The constructs containing the cDNA sequences of the human PTH2 receptor and β-galactosidase have been previously described.
(§3) All peptides were purchased from either Bachem (Torrance, Calif.) or Peninsula Laboratories (Belmont, Calif.). The letters ‘b,’ ‘r’ and ‘h’ designate the peptide sequence as bovine, rat and human, respectively. […] [α-^32P]dCTP was purchased from ICN Biomedicals (Costa Mesa, Calif.). Bovine hypothalamic extract was prepared by acid extraction, gel-filtration and reverse-phase HPLC as previously described. […] Antagonist inhibitory potency was examined by measuring the concentration-dependence of rPTH(1–34)-stimulated cAMP accumulation in the presence and absence of antagonist.
(§4) Statistical comparison of two sample means was evaluated using the two-tailed Student's t-test. […] Antagonist inhibitory potency was quantified using the pA2, value, the negative logarithm of the concentration of antagonist that produces a two-fold decrease of agonist EC50. This was calculated using the following equation: pA2=((EC50/EC50′)−1)−log [antagonist]

rat PTH2 receptor = target: T2, rat PTH2 receptor (Rattus norvegicus, UniProt P70555); test: cAMP accumulation in COS-7 cells transiently expressing the rat PTH2 receptor; assay type: cell-based
T2 construct: expressed in transfected cells; host or cells: COS-7 (transient)
T2 sequence (P70555 25-546): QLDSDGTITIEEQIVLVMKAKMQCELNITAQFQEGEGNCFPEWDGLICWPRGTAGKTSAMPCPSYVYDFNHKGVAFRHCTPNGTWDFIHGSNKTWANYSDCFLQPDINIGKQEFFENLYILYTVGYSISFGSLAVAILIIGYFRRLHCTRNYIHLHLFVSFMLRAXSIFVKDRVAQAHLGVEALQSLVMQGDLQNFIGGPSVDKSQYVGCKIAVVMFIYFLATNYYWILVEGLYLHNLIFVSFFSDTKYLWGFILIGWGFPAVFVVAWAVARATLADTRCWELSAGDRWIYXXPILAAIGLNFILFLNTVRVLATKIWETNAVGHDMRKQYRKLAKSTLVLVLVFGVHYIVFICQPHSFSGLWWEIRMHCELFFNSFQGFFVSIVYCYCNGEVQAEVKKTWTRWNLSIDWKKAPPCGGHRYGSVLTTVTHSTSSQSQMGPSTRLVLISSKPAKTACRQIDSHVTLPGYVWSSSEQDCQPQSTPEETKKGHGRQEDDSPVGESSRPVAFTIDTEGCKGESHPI
Procedure: To express rat PTH2 receptor in cell culture, a rat hypothalamus cDNA library was prepared in the vector CDM7 amp as described. […] A clone was isolated from a single positive pool by colony hybridization using the same ^32P labeled probe.
as §1, §2, §3, §4

T1 sequence (P49190 25-550): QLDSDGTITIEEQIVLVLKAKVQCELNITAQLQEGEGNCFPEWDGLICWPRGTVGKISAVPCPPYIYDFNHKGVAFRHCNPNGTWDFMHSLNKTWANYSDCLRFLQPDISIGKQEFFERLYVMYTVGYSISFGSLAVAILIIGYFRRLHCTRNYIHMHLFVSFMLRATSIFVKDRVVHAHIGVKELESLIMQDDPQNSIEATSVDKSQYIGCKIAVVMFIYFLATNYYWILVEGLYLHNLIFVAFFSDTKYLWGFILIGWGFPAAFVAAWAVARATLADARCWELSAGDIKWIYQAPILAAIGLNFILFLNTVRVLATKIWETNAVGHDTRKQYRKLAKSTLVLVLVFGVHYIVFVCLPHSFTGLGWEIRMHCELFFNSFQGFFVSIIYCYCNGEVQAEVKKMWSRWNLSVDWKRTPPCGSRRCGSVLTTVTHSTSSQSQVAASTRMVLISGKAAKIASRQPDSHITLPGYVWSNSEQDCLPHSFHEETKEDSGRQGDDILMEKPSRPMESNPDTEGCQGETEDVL

B1: rPTH(1-84): rat full-length parathyroid hormone (1–84), purchased (peptide)
peptide: AVSEIQLMHNLGKHLASVERMQWLRKKLQDVHNFVSLGVQMAAREGSYQRPTKKEENVLVDGNSKSLGEGDKADVDVLVKAKSQ
Q: How did the EC50 (human PTH2 receptor; activation of adenylyl cyclase, figures in brackets) turn out when B1 was run?
A: 0.58 nM

Q: What about the “−logEC50” value (human PTH2 receptor; activation of adenylyl cyclase, mean ± s.e.m. of three or four experiments) of the same molecule?
A: 9.24 ± 0.05

Q: And the “Emax, % of response to 1 μM hPTH(1-34)” value (human PTH2 receptor; intrinsic activity)?
A: 98 ± 4%

Q: And the EC50 (rat PTH2 receptor; activation of adenylyl cyclase, COS-7, figures in brackets)?
A: 19 nM

Q: And the “−logEC50” value (rat PTH2 receptor; activation of adenylyl cyclase, COS-7, mean ± s.e.m. of three or four experiments)?
A: 7.72 ± 0.12

Q: And the “Emax, % of response of rPTH2r to 3 μM rPTH(1-34)” value (rat PTH2 receptor; intrinsic activity, COS-7)?
A: 97 ± 5%

Q: And the “Emax, % of response of hPTH2r to 1 μM hPTH(1-34)” value (rat PTH2 receptor; rat receptor response relative to human PTH2 receptor response measured in parallel)?
A: 28 ± 4%
